For one substance, stoichiometry N results are on record in publication PMC12108899.

In this test the target is hemocyanin from Macrobrachium acanthurus (Macrobrachium acanthurus). Briefly: AUC; sedimentation velocity, HcMac at 100, 200 and 300 ug/mL, Tris-HCl 100 mmol/L with NaCl 50 mmol/L, pH 7.0, 20 °C, absorbance at 280 nm, SEDFIT c(S) and c(M); single 19S species of about 450 kDa; hexamer of monomeric subunits.

For the substance “hemocyanin from Macrobrachium acanthurus (natural protein)”, the stoichiometry N (as a rule, the number of molecules, sites or subunits per partner or assembly) was determined as 6.
